In US7018836:

Tests used:
[1] = biological target: human P-TEFb from HeLa extract, detected through its kinase subunit PITALRE (human); assay: cell-based or functional assay
GST-Tat 1 86R = GST-Tat 1 86R (UniProt P04608)

Chain of human P-TEFb from HeLa extract, detected through its kinase subunit PITALRE (human) (P50750 whole entry): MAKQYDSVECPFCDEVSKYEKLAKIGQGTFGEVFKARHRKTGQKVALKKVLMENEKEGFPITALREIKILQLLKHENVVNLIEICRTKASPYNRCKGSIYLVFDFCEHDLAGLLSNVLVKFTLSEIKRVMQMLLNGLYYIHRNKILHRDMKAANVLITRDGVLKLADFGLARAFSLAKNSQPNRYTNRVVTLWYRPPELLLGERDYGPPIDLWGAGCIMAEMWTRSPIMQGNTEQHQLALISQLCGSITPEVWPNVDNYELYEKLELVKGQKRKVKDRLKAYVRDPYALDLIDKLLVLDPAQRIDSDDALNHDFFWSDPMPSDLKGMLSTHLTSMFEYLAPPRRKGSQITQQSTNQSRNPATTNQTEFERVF
Chain of GST-Tat 1 48Δ (P08515 1-218, tags or fused parts left off): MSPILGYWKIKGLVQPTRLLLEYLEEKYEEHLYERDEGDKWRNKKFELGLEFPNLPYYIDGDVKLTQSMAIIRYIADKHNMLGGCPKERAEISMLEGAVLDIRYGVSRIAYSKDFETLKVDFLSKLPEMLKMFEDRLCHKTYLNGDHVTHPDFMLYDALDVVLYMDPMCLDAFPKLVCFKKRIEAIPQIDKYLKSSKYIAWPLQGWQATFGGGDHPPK

Question: For “GST-Tat 1 48Δ (from UniProt P08515 1-218; P04608 1-48)”, which TAK activity (assayed by GST-Tat48A pull-down) after depletion of human P-TEFb from HNE by antibodies to PITALRE [1] is on record?
Answer: < 2%

Question: With “86 residue HIV-1 Tat followed by a streptavidin binding tag at its carboxyl terminus (from UniProt P04608 1-86)” as the substance, how does the runoff transcription from the HIV-1 LTR TAR template in HNE, continuous labeling [1] read?
Answer: 12 fold

Question: How did the “phosphorylation of the CTD of RNA polymerase II” value (GST-Tat 1 86R) turn out when “human P-TEFb from HeLa extract, detected through its kinase subunit PITALRE” was run?
Answer: The GST-Tat 1 86R/P-TEFb protein complex can phosphorylate the CTD of RNA polymerase II
